T1: Mcl-1, Q07820
T1 chain: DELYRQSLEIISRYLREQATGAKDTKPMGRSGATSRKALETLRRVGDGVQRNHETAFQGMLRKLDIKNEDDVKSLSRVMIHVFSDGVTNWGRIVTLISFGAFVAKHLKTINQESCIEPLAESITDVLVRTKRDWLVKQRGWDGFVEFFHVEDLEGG


target: Bcl-xL, Q07817; test: peptide SPOT array, c-Myc-tagged receptor at 1 uM or 100 nM, anti-c-Myc-Cy3
Sequence (Q07817 1-209): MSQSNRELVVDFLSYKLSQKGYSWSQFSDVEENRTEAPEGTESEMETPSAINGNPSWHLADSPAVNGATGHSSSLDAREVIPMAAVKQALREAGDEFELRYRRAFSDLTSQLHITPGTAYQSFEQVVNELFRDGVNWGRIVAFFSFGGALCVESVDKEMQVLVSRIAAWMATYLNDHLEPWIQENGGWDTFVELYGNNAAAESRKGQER

Question: LHNLVKAAQSLDEMSQTITDLLSEQK [RB1CC1] was tested. Which SPOT signal as a fraction of Bim BH3's signal on the same receptor and array did it give?
Answer: 0.03

Question: Which SPOT signal as a fraction of Bim BH3's signal on the same receptor and array does the source give for RAELTGLARRLADRARELQETNLRAV [RIMBP3C] here?
Answer: 0.22

Question: With RQAFYLHTTKLTRILRRLCREILRPW as the binder, how does the SPOT signal as a fraction of Bim BH3's signal on the same receptor and array read?
Answer: 0.85

Question: How did the SPOT signal as a fraction of Bim BH3's signal on the same receptor and array turn out when FNIPREAAERLRILAQSNNQQLRDLG [NCOA6] was run?
Answer: 0.08

Question: With REHIKLLIQKLTDVAEECQNNQLKKL [PLCB1] as the binder, how does the SPOT signal as a fraction of Bim BH3's signal on the same receptor and array read?
Answer: 0.05

Question: For PEDLQDVGWFLHKLLQQILKKEKEKK [TLR5], which SPOT signal as a fraction of Bim BH3's signal on the same receptor and array is on record?
Answer: 0.09

Question: How did the SPOT signal as a fraction of Bim BH3's signal on the same receptor and array turn out when RYPILENPEIDRKTADDFLNRIALTD [CCNH] was run?
Answer: 0.02

Question: With FERVEQMCIQIKEVLDRVNYIKRSLQ [TRPM7] as the binder, how does the SPOT signal as a fraction of Bim BH3's signal on the same receptor and array read?
Answer: 0.18

Question: With DFMGRTFAKPLVKMLDEAYCPPRFPP [OTOF] as the binder, how does the SPOT signal as a fraction of Bim BH3's signal on the same receptor and array read?
Answer: 0.17

Question: RQAFYLHTTKDTRIARRLCREILRPW was tested. Which SPOT signal as a fraction of Bim BH3's signal on the same receptor and array did it give?
Answer: 1.26

Question: How did the SPOT signal as a fraction of Bim BH3's signal on the same receptor and array turn out when LREVRESIRFLRQVLRDWVQRRREAL was run?
Answer: 0.44

Question: TDENKKVGLALKDLLKQYSDRLECCE [NUB1] was tested. Which SPOT signal as a fraction of Bim BH3's signal on the same receptor and array did it give?
Answer: 0.03

Question: For QFEIEKSCELLFQMAESVDYDYDVQD [DHX40], which SPOT signal as a fraction of Bim BH3's signal on the same receptor and array is on record?
Answer: 0.02

Question: Which SPOT signal as a fraction of Bim BH3's signal on the same receptor and array does the source give for LANVTEDAKRLIAVADSVLTKVVGDL [RNF213] here?
Answer: 0.03

Question: Which SPOT signal as a fraction of Bim BH3's signal on the same receptor and array does the source give for LQIIPTLCHLLRALSDDGVSDLEDPT [DFNA5] here?
Answer: 0.03

Question: AYRGRGIAKHDAKAALDFVVEEDLKA was tested. Which SPOT signal as a fraction of Bim BH3's signal on the same receptor and array did it give?
Answer: 0.21

Question: Which SPOT signal as a fraction of Bim BH3's signal on the same receptor and array does the source give for GELAQVSGLEDRKWVDELFIIIMDML [mTOR] here?
Answer: 0.02

Question: With EVLAGPLAQRLSHILEDVGRLVKKSR [ARHGAP4] as the binder, how does the SPOT signal as a fraction of Bim BH3's signal on the same receptor and array read?
Answer: 0.19

Question: GTKSQLLAKRLLDLSNEGFTNWEFMT [PCSK6] was tested. Which SPOT signal as a fraction of Bim BH3's signal on the same receptor and array did it give?
Answer: 0.03

Question: How did the SPOT signal as a fraction of Bim BH3's signal on the same receptor and array turn out when KKRADSVANKLGSFGKTLGSKLKKNM [OTUD7B] was run?
Answer: 0.58

Question: For GSGPSKTSRVLQNVAFSVQKEVEKNL [BCL2A1], which SPOT signal as a fraction of Bim BH3's signal on the same receptor and array is on record?
Answer: 0.06

Question: RVIPHDGAEDLWIQAQELVRNMKENL [PLB1] was tested. Which SPOT signal as a fraction of Bim BH3's signal on the same receptor and array did it give?
Answer: 0.03

Question: With LREVRESIRFDRQVGRDWVQRRREAL as the binder, how does the SPOT signal as a fraction of Bim BH3's signal on the same receptor and array read?
Answer: 1.14

Question: How did the SPOT signal as a fraction of Bim BH3's signal on the same receptor and array turn out when SDNLFKWVGTIHGAAGTVYEDLRYKL [UBE2C] was run?
Answer: 0.03

Question: Which SPOT signal as a fraction of Bim BH3's signal on the same receptor and array does the source give for IKKSVTKGEMDKIVGKRFREHFPEIL [MAGEB2] here?
Answer: 0.4

Question: How did the SPOT signal as a fraction of Bim BH3's signal on the same receptor and array turn out when KYDPSKYCHNDKKIGEDFSNTIPISS was run?
Answer: 0.08

Question: Which SPOT signal as a fraction of Bim BH3's signal on the same receptor and array does the source give for KYDPSKYCHNLKKILEDFSNTIPISS here?
Answer: 0.28

Question: Which SPOT signal as a fraction of Bim BH3's signal on the same receptor and array does the source give for DLQIYQPGRRLQTVSKESASRVEEEE [SMG6] here?
Answer: 0.03

Question: For AYRGRGIAKHLAKALLDFVVEEDLKA, which SPOT signal as a fraction of Bim BH3's signal on the same receptor and array is on record?
Answer: 0.17

Question: Which SPOT signal as a fraction of Bim BH3's signal on the same receptor and array does the source give for EARVLEEASRLEEEAQQTRLQLQQRL [EVC] here?
Answer: 0.02

Question: Which SPOT signal as a fraction of Bim BH3's signal on the same receptor and array does the source give for EVRSSQFARKDWRSSRRISQVSSGET [NBEAL2] here?
Answer: 0.92

Question: Which SPOT signal as a fraction of Bim BH3's signal on the same receptor and array does the source give for KSRLVQQSKALKELLDELQERCQRPA [TRIM58] here?
Answer: 0.11

Question: For PFGLQGNSEYLIEFSRNLGKSSEHLL [CGNL1], which SPOT signal as a fraction of Bim BH3's signal on the same receptor and array is on record?
Answer: 0.03

Question: For PKELEGYIQKLQNAAERLATENRKLR [DYNC2H1], which SPOT signal as a fraction of Bim BH3's signal on the same receptor and array is on record?
Answer: 0.09

Question: Which SPOT signal as a fraction of Bim BH3's signal on the same receptor and array does the source give for NRKGEKNGKGLRHFLMKVCEKVQRKG here?
Answer: 0.42

Question: NVGCQQDSEELLKLATSISETLEEKP [UBA6] was tested. Which SPOT signal as a fraction of Bim BH3's signal on the same receptor and array did it give?
Answer: 0.02

Question: For FEKLRMIAKEIRHVLRMASVNMDPAL [RAPGEF2], which SPOT signal as a fraction of Bim BH3's signal on the same receptor and array is on record?
Answer: 0.09

Question: With GSIAKKFSAALQKLSSHLQPRVPEHS [ANO2] as the binder, how does the SPOT signal as a fraction of Bim BH3's signal on the same receptor and array read?
Answer: 0.11

Question: NRKGEKNGKGDRHFSMKVCEKVQRKG was tested. Which SPOT signal as a fraction of Bim BH3's signal on the same receptor and array did it give?
Answer: 0.47

Question: With WLVLRRLVTLITQLAKELSNKGVLKT [BCAP29] as the binder, how does the SPOT signal as a fraction of Bim BH3's signal on the same receptor and array read?
Answer: 0.35

Question: How did the SPOT signal as a fraction of Bim BH3's signal on the same receptor and array turn out when CLSCDLCGCRLGEVLRRLYYKLGRKL was run?
Answer: 0.54

Question: Which SPOT signal as a fraction of Bim BH3's signal on the same receptor and array does the source give for YGRLRPRARSLSKASTAINWLTKKFL [MYO15A] here?
Answer: 1.39

Question: LHQAKDFGNYLFNFASAATKKITESV [SYAP1] was tested. Which SPOT signal as a fraction of Bim BH3's signal on the same receptor and array did it give?
Answer: 0.21

Question: Which SPOT signal as a fraction of Bim BH3's signal on the same receptor and array does the source give for CLSCDLCGCRDGEVGRRLYYKLGRKL here?
Answer: 1.08

Target: T1, Mcl-1, Q07820
Test: as above

Question: Which SPOT signal as a fraction of Bim BH3's signal on the same receptor and array does the source give for YYSSRQYASALKHIAEIIERGIRQHP [TTC30A] here?
Answer: 0.08

Question: How did the SPOT signal as a fraction of Bim BH3's signal on the same receptor and array turn out when RGLEQHVALYLEHGADVGLRTSQGET [ASB16] was run?
Answer: 0.02

Question: SGKLKEMVPIIAQYGDVLVRNLRREA [CYP3A4] was tested. Which SPOT signal as a fraction of Bim BH3's signal on the same receptor and array did it give?
Answer: 0.07

Question: How did the SPOT signal as a fraction of Bim BH3's signal on the same receptor and array turn out when PSTYLAVAEELADVSGKYFDGLKQKA [RDH13] was run?
Answer: 0.05

Question: With EGAKSETAEELKKVAQELEEKLNILN [APOL1] as the binder, how does the SPOT signal as a fraction of Bim BH3's signal on the same receptor and array read?
Answer: 0.01

Question: For HQQLTRAARLISETAQRVHTIGQKQK [C9orf100], which SPOT signal as a fraction of Bim BH3's signal on the same receptor and array is on record?
Answer: 0.57

Question: Which SPOT signal as a fraction of Bim BH3's signal on the same receptor and array does the source give for RLRSEYVAQCLGRAAQGGCPRARCRR [GFRA4] here?
Answer: 0.8

Question: For GPEHPAVAATLNNLAVLYGKRGRYRE [KLC3], which SPOT signal as a fraction of Bim BH3's signal on the same receptor and array is on record?
Answer: 0.28

Question: Which SPOT signal as a fraction of Bim BH3's signal on the same receptor and array does the source give for TGKDRLTAGLINIVSFDLLSKLEKQL [SMARCAL1] here?
Answer: 0.02

— article PMC4072508, “Genome-Wide Prediction and Validation of Peptides That Bind Human Prosurvival Bcl-2 Proteins” (PLoS Computational Biology, 2014)
